In patent US20230303681A1 (published 2023):
Several values for one entry are separate records, joined by “and”; a condition that tells them apart may be missing. Equal values may be shown once. Read-outs that look alike come from different tables or passages of the source.

B1: anti-TMEM106B antibody TM-1 (antibody, V domains shown)
VH: QVQLQQSGAELVRPGTSVKVSCKASGYAFTNYLIEWVKQRPGQGLEWIGVINPGSGGTKYNEKLKGKATLTADKSSSTAYMQLSSLTSVDSAVYFCARRGYTIYDFYAMDYWGQGTSVTVSS
VL: DVLMTQTPLSLPVSLGDHASISCRSSQSIVYNNGNTYLEWYLQKPGQSPKLLIYKVSNRFSGVPDRFSGSGSGTDFTLKISRVEAEDLGVYYCFQVSHVPFTFGSGTKLEIK
B2: anti-TMEM106B antibody TM-18 (antibody, V domains shown)
VH: EVRLQQSGPELVKPGASVKISCKTSGYTFTDYYMNWVKQSHGKSLEWIVNINPNNGDAFYNQKFKGKATLTVDKSSNTAYLDLRSLTSEDSAVYYCAREGQLRLRRVYAMDYWGQGTSVTVSS
VL: DIVLAQSPASLAVSLGQRATISCRASKSVSISVYTYVHWYQQKPGQPPKLLIYLASNLESGVPARFSGSGSGTDFTLNIHPVEEEDAATYYCQHSRELPYTFGGGTKLEIK
B3: anti-TMEM106B antibody TM-19 (antibody, V domains shown)
VH: DVQLQQSGAELVRPGASVKLSCTASGFNIKDYYMYWVKQRPEQGLEWIGRIDPEDGDTENAPKFRGMATMTADTSSNTAYLQLNSLTSEDTAVYYCTTRIGNLYHVMDYWGHGTSVTVSS
VL: DVLMTQTPLSLPVSLGDQASISCRSSQSIVHSNGNTYLEWYLQKPGQAPKLLIDKVFNRFSGVPDRFSGSGSGTDFTLKISRVEAEDLGVYYCFQGSHVPFTFGSGTKLEIK
B4: anti-TMEM106B antibody TM-49 (antibody, V domains shown)
VH: QVQLQQPGAELVRPGSSVKLSCKASGYTFTRFWMHWVKQRPIQGLEWIGNIDPSDSQTHYNQKFKDKATLTVDKSSSTAYMQLSSLTSEDSAVYYCARLITVDYAMDYWGQGTSVTVSS
VL: QIVLTQSPAIMSASPGEKVTISCSASSSVSYMYWYQQKPGSSPKPWIHRTSNLASGVPVRFSGSGSGTSYSLTISSMEAEDAATYYCQQYHSYPPTFGAGTKLELK
notes: mouse IgG from hybridoma
B5: anti-TMEM106B antibody TM-50 (antibody, V domains shown)
VH: QVQLKESGPVLVAPSQSLSITCTVSGFSLTNYGVHWVRQPPGKGLEWLGVIWAGGNTNYNSALMSRLSISKDNSKSQVFLKMNSLQTDDTAMYYCAKEAKLLRSYAMDYWGQGTLVTVSA
VL: DVQMTQTTSSLSASLGDRVTISCRASQDINNYLYWYQQKPDGTVKLLIYYTSMLHSGVPSRFSGSGSGTDYSLTISNLEQEDIATYFCQQGSTLMYTFGGGTKLEIK
notes: mouse IgG from hybridoma
B6: anti-TMEM106B antibody TM-52 (antibody, V domains shown)
VH: QVQLQQPGAELVKPGASVKLSCKASGYTFTNYWMHWVKQRPGQGLDWIGNIDPSDSETHYNQKFKDKATLTVDKVSSTAYMQLSSLTSEDSAVYYCARRGYYGRSPFAYWGQGTLVTVSA
VL: ENVLTQSPAIMSASPGEKVTMTCSASSSVSYMHWYQQKSNTSPKLWIYDTSKLASGVPGRFSGSGSGNSYSLTISSAEAEDVATYYCFQGSGYPLTFGAGTKLELK
notes: mouse IgG from hybridoma
B7: anti-TMEM106B antibody TM-2 (antibody, V domains shown)
VH: HIQLVQSGPELKKPGETVKISCKASGYTFTEYPMHWVKQAPGKGFRWMGMIYTNTGEPTYAAEFKGRFAFSLETSASTGYLQINNLKNEDSATYFCVTAGYWGQGTLVTVSA
VL: QIVLTQSPAILSASPGEKVTMTCRASSSVSYIHWFLQKPGSSPKPWIYATSNLASGVPFRFIGSGSGTSYSLTISGVEAEDSATYYCQQWSSNPSTFGAGTKLELK
B8: anti-TMEM106B antibody TM-22 (antibody, V domains shown)
VH: QVQLQQSGPELVKPGASVKISCKASGYRFTSYYIHWVKQRPGQGLEWIGWIYPGNGITNYNEKFKGKATLTADTSSSTAYMQLSSLTSEDSAVYYCASPYYGIRNCYFDVWGTGTTVTVSS
VL: DVLMTQTPLSLPVSLGDHASISCRSGQSIVHSNGNTYLEWYLQKPGQSPKLLIYKVSNRFSGVPDRFSGSGSGTDFTLKISRVEAEDLGIYYCFQGSHVPWTFGGGTKLEIK

How the values were obtained:
human TMEM106B [1] = biological target: T1, human TMEM106B (human, UniProt Q9NUM4 2-274); assay: FACS A549, 10 ug/ml
T1 construct: Full-length, on transiently transfected HEK293 cells, or natively expressed on HeLa, U251 and A549 cells; also called huTMEM106B; huTMEM

GST (Pierce) [2] = biological target: T2, GST (Pierce) (UniProt P08515 1-218 = GST, limits assumed); assay: ELISA, coated GST;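 also: ELISA on plates coated with GST alone at 1-10 µg/ml, antibodies applied at 100-1000x dilution, bound antibody detected by peroxidase substrate colour after acid stop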
T2 construct: control for the GST part of the fusion protein; also called GST protein; Glutathione-S-transferase
Procedure: (§1) Briefly, 96-well polystyrene plates were coated with 1-10 µg/ml of recombinant GST-TMEM106B-truncated protein or GST (Pierce) in PBS either at 370 Cfor 1-4 hours or overnight at 4 °C. Coated plates were then blocked with 5% BSA for 1-hour, washed 3×150 µL in TBST (Tris-buffered saline + 0.1% Tween20), and then the antibodies were added at various dilutions (100-1000x) in PBS. After 1-hour incubation (room temperature, with shaking), the plates were washed 3x150 µL in TBST. […] After a final set of washes (3×150µL in TBST), 100 µL of peroxidase substrate was added for 1 minute; the reaction was then quenched with 2N sulfuric acid (100 µL).

human TMEM106B [3] = biological target: T1, human TMEM106B; assay: FACS titration on cells, apparent
Procedure: (§2) Purified anti-TMEM106B antibodies were evaluated for their binding affinity to various TMEM106B-expressing cell lines including HEK293 transiently transfected with human/cyno/mouse TMEM106B, as well as HeLa cells and A549 cells. Antibodies tested for this experiment were mouse IgGs purified from hybridoma supernatant. Affinity binding to cells was determined as follows. Briefly, 1x10^5 cells were aliquoted per well in 96-well round bottom plates and incubated with 50 µL of purified anti-TMEM106B antibody at various concentrations (10x dilutions starting at 10 µg/ml) in FACS buffer (PBS + 2% FBS + 1 mM EDTA). […] Sorting was performed on a iQue (Intellicyt), with sort gates drawn to exclude dead (propidium iodide +) cells. Binding data was analyzed using median fluorescent intensity (MFI) and graphed in Prism. Values presented are MFI.

human TMEM106B [4] = biological target: T1, human TMEM106B; assay: FACS HEK+huTMEM, 1.0 ug/ml
human TMEM106B [5] = biological target: T1, human TMEM106B; assay: FACS A549
Procedure: (§3) All cells were cultured in either T75 or T150 flasks. […] The enzyme was quenched by addition of fresh media, and the cells were then distributed into 96-well plates for FACS analysis.
(§4) FACS analysis was performed as follows. Each cell type was aliquoted in 96-well round bottom plates (2x10^5 cells per well), washed once with FACS buffer (PBS + 2% FBS + 1 mM EDTA), and incubated with 50 µL of hybridoma supernatant or purified antibody (10 µg/ml in FACS buffer) on ice for 1 hour. […] Following this secondary incubation, the cells were again washed 2x with ice-cold FACS buffer and resuspended in a final volume of 50 µL of FACS buffer + 0.25 µl/well propidium iodide (Fisher Scientific # BDB556463). Analysis was performed on a FACSCanto system (BD Biosciences) or iQue (Intellicyt), with sort gates drawn to exclude dead (i.e., propidium iodide positive) cells.
(§5) Data is presented as mean fluorescence intensity (MFI).

human TMEM106B [6] = biological target: T1, human TMEM106B; assay: FACS A549, 1 ug/ml
human TMEM106B [7] = biological target: T1, human TMEM106B; assay: FACS HEK+huTMEM, 10 ug/ml;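 also: purified mouse IgG antibodies at 10 µg/ml bound to HEK293 cells transiently expressing human TMEM106B, measured by flow cytometry as median fluorescence intensity of propidium iodide negative live cells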
Procedure: as §2

human TMEM106B [8] = biological target: T1, human TMEM106B; assay: FACS HEK+huTMEM, 0.01 ug/ml
human TMEM106B [9] = biological target: T1, human TMEM106B; assay: FACS, HEK293 transfectants;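 as to fold over negative controls: hybridoma supernatants incubated 30 min on ice with human TMEM106B-expressing HEK293 cells, binding read as anti-mouse-APC median fluorescence on live cells, relative to secondary-antibody-only wells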;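 as to fold-change over parental HEK293: flow cytometry binding of hybridoma supernatants to HEK293 cells transiently expressing human, cyno or mouse TMEM106B, read as anti-mouse-APC median fluorescence, live cells only, 30 min on ice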
[10] = biological target: T3, GST-fusion human TMEM106B truncated (human); assay: array SPR, Ab immobilised;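 as to koff: antibodies amine-coupled on an MX-96 chip, antigen flowed at 500 nM top concentration in 5-fold serial dilutions, GST alone run as nonspecific-binding control, duplicate measurements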;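 as to kon: antibodies amine-coupled on an MX-96 chip, antigen flowed at 500 nM top concentration in 5-fold serial dilutions, GST alone run as nonspecific-binding control, duplicate measurements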
T3 construct: also called GST-TMEM106B-truncated protein; GST-TMEM106B (truncated)
Procedure: Binding kinetic characterization of the purified antibodies was performed by Carterra using a proprietary array SPR instrument (MX-96) as follows. Briefly, antibodies were prepared by diluting to 5 µg/ml in 10 mM Acetate, pH 4.5 (Carterra), at 150 µL/well and then made an additional dilution at 1:10 from there by titrating 11 µl into 100 µL. […] The chip was activated with 18 mM EDC (Sigma Bioxtra) and 4.5 mM S-NHS (Thermo Fisher) diluted in 100 mM MES, pH 5.5, for 7 minutes, and then antibodies were coupled for 10 minutes at 45 µL/minute. After coupling, the chip was returned to the MX-96 and quenched for 7 minutes using 1 M Ethanolamine pH 8.5 (Carterra).
Printed antibodies were profiled for their ability to bind GST-TMEM106B (truncated) protein (described above). Briefly, GST-TMEM106B (truncated) antigen was diluted to 18 µg/ml (500 nM of 36 kDa fusion protein) by mixing 2.7 µL of 2.0 mg/ml antigen into 298 µL Running buffer (HBS-EP+, Teknova with 1 mg/ml BSA, Sigma), and titrated 50 µl into 200 µl for 5-fold serial dilutions. In addition, binding to GST (Pierce) was assayed under the same conditions to determine the extent of any nonspecific binding of the anti-TMEM106B antibodies to GST portion of the TMEM106B-GST fusion protein. Duplicate measurements for each anti-TMEM106B antibody were taken to ensure reproducibility.

human TMEM106B [11] = biological target: T1, human TMEM106B; assay: FACS HeLa;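 also: flow cytometry of cells incubated with hybridoma supernatant or purified antibody at 10 µg/ml for 1 h on ice, propidium iodide–positive dead cells gated out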
mouse TMEM106B [12] = biological target: T4, mouse TMEM106B (mouse, UniProt Q80X71 2-275); assay: FACS Neuro2a;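 also: flow cytometry of cells stained with antibody or hybridoma supernatant (purified antibody at 10 µg/ml) for 1 h on ice, propidium iodide–positive dead cells gated out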
T4 construct: on transiently transfected HEK293 cells, or natively expressed on mouse Neuro2a cells; also called moTMEM106B; murine TMEM106B
Procedure: as §3, §4, §5

human TMEM106B [13] = biological target: T1, human TMEM106B; assay: FACS U251;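 also: flow cytometry of cells exposed to antibody (purified at 10 µg/mL, or hybridoma supernatant) for 1 h on ice, with propidium iodide-positive dead cells gated out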
Procedure: as §3, §4, §5

human TMEM106B [14] = biological target: T1, human TMEM106B; assay: FACS HEK+huTMEM, 0.1 ug/ml;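 also: flow cytometry binding of purified mouse IgG antibodies to HEK293 cells transiently expressing TMEM106B, read as median fluorescence intensity with propidium iodide positive dead cells gated out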
mouse TMEM106B [15] = biological target: T4, mouse TMEM106B; assay: FACS, HEK293 transfectants;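 also: flow cytometry binding of hybridoma supernatants to HEK293 cells transiently expressing human, cyno or mouse TMEM106B, read as anti-mouse-APC median fluorescence, live cells only, 30 min on ice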
Procedure: (§6) For screening of the hybridoma cell culture supernatants, humanTMEM106B-transfected HEK293 cells were aliquoted in 96-well round bottom plates (2x10^5 cells per well) and incubated with 50 µL of hybridoma cell culture supernatant on ice for 30 minutes. […] Median fluorescence intensity (MFI) of anti-mouse-APC MFI on TMEM106B+ HEK293 cells was calculated for each clone, and those displaying a signal of at least 2-fold over background compared to a secondary-antibody only well were taken forward for further analysis and characterization.

human TMEM106B [16] = biological target: T1, human TMEM106B; assay: FACS, HEK293 transfectants; remark: listed apart in the source;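 as to fold over negative controls: hybridoma supernatants incubated 30 min on ice with human TMEM106B-expressing HEK293 cells, binding read as anti-mouse-APC median fluorescence on live cells, relative to secondary-antibody-only wells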;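 as to fold-change over parental HEK293: flow cytometry binding of hybridoma supernatants to HEK293 cells transiently expressing human, cyno or mouse TMEM106B, read as anti-mouse-APC median fluorescence, live cells only, 30 min on ice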
Procedure: as §6

[17] = biological target: T5, cynomolgus (cyno) TMEM106B (cynomolgus, UniProt Q9NUM4 2-274 (human entry)); assay: FACS, HEK293 transfectants;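 also: flow cytometry binding of hybridoma supernatants to HEK293 cells transiently expressing human, cyno or mouse TMEM106B, read as anti-mouse-APC median fluorescence, live cells only, 30 min on ice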
T5 construct: on transiently transfected HEK293 cells
Procedure: as §6

[18] = biological target: T3, GST-fusion human TMEM106B truncated; assay: ELISA, supernatant
Procedure: as §1

GST (Pierce) [19] = biological target: T2, GST (Pierce); assay: array SPR, Ab immobilised
[20] = biological target: T3, GST-fusion human TMEM106B truncated; assay: epitope binning, array SPR (Community 3, Bin 5)
Procedure: Epitope binning of the anti-TMEM106B antibodies was performed by Carterra (Salt Lake City, Nevada, USA) using a pre-mix epitope binning approach.

[21] = biological target: T3, GST-fusion human TMEM106B truncated; assay: array SPR, Ab immobilised; remark: listed apart in the source;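 as to koff: antibodies amine-coupled on an MX-96 chip, antigen flowed at 500 nM top concentration in 5-fold serial dilutions, GST alone run as nonspecific-binding control, duplicate measurements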;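 as to kon: antibodies amine-coupled on an MX-96 chip, antigen flowed at 500 nM top concentration in 5-fold serial dilutions, GST alone run as nonspecific-binding control, duplicate measurements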

| Binder | MFI (human TMEM106B [1]) | binding result (GST (Pierce) [2]) | Kd (human TMEM106B [3]) [nM] | MFI (human TMEM106B [4]) | MFI (human TMEM106B [5]) | MFI (human TMEM106B [6]) | MFI (human TMEM106B [7]) | MFI (human TMEM106B [8]) | fold over negative controls (human TMEM106B [9]) [fold] | Kd [10] | koff [10] | kon [10] | MFI (human TMEM106B [11]) | MFI (mouse TMEM106B [12]) | MFI (human TMEM106B [13]) | MFI (human TMEM106B [14]) | fold-change over parental HEK293 (mouse TMEM106B [15]) [fold] | fold-change over parental HEK293 (human TMEM106B [16]) [fold] | fold-change over parental HEK293 [17] [fold] | binding result (GST (Pierce) [19]) | further results |
| --- | --- | --- | --- | --- | --- | --- | --- | --- | --- | --- | --- | --- | --- | --- | --- | --- | --- | --- | --- | --- | --- |
| B1 | 409 | no binding | ~1 | 2010 | 1460 | 364 | 2380 | 655 | > 2 | 14 nM and 13 nM | 0.00057 s⁻¹ and 0.00069 s⁻¹ | 40000 M⁻¹ s⁻¹ and 52000 M⁻¹ s⁻¹ | 253 | 253 | 244 | 1330 | 4.61 | 4.72 | 11.7 |  |  |
| B2 | 5190 | no binding | ~1 | 67300 | 1490 | 2620 | 71700 | 1740 | > 2 | 7.3 nM and 11 nM | 7.2e-05 s⁻¹ and 9.4e-05 s⁻¹ | 9900 M⁻¹ s⁻¹ and 8500 M⁻¹ s⁻¹ | 1920 | 1930 | 874 | 10600 | 29 | 18.8 | 38.8 |  |  |
| B3 | 4960 | no binding | ~1 | 66800 | 1820 | 3640 | 79000 | 3340 | > 2 |  |  |  | 2430 | 2140 | 878 | 29800 | 36 | 13.8 | 34.9 |  | binding result [18]: binds |
| B4 | 613 |  |  | 15700 | 924 | 473 | 16500 | 756 | > 2 |  |  |  | 187 | 291 | 434 | 3030 | 21.3 | 15.6 | 13.8 | no binding | binding result [20]: no binding (tested: 55 nM antigen) |
| B5 | 445 |  |  | 314 | 580 | 381 | 396 | 294 | > 2 |  |  |  | 159 | 257 | 260 | 305 | 17.5 | 16 | 17.8 | no binding | binding result [20]: no binding (tested: 55 nM antigen) |
| B6 | 443 |  |  | 8200 | 987 | 401 | 7020 | 451 | > 2 |  |  |  | 227 | 210 | 341 | 1940 | 0.67 | 17.3 | 22.6 | no binding | binding result [20]: no binding (tested: 55 nM antigen) |
| B7 | 3360 | no binding |  | 29300 | 1890 | 1090 | 55500 | 1440 | > 2 | 0.9 nM and 1.2 nM | 1.1e-05 s⁻¹ and 1e-05 s⁻¹ | 12000 M⁻¹ s⁻¹ and 8300 M⁻¹ s⁻¹ | 2530 | 2900 | 1410 | 4730 | 17.5 | 9.84 | 32.3 |  | Kd [21]: ~1 nM |
| B8 | 478 | no binding |  | 2100 | 1570 | 399 | 3580 | 500 |  |  |  |  | 408 | 400 | 313 | 833 |  |  |  |  | binding result [18]: binds |
